Here are results for 9 molecules from US20250368745A1 (published 2025).

Positions count from the first letter of the chain named. Values joined by “and” are separate entries in the source; they are usually repeats but may differ in a detail not shown here. Equal values may be shown once. Read-outs that look alike come from different tables or passages of the source.

Test [1] has as its target T1, mouse IL-18BP (mouse, UniProt Q9Z0M9 29-193).
T1 construct: also called mIL-18BP
T1 sequence: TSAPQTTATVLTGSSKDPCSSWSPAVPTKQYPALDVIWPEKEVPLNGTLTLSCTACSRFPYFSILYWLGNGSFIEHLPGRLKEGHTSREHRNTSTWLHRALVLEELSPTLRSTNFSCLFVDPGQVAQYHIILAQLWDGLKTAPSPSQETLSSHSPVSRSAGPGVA
Nature of the test: BLI (Octet), mAb on AHC biosensor.

Test [2] addresses hypo-IL-18 (IL-18 tethered to IL-18BP by a flexible linker with TEV site, 6xHis) (human). In words: BLI.
For test [3], the target named is T2, human IL-18BP (interleukin-18 binding protein, isoform A) (human, UniProt O95998 31-194).
T2 construct: cell assays used Sino Biological 10357-H08H; PBMC assay 1 relies on endogenous IL-18BP; UniProt number is printed as 095998; also called hIL-18BP
T2 sequence: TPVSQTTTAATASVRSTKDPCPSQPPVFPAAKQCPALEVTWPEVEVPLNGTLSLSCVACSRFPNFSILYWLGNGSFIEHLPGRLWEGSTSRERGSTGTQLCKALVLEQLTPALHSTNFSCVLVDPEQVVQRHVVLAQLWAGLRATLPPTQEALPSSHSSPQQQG
In words: BLI (Octet), mAb on AHC biosensor.

The target in test [4] is T3, cynomolgus IL-18BP (cynomolgus monkey).
T3 construct: Generated in-house; also called cyIL-18BP; cyno IL-18BP
T3 chain: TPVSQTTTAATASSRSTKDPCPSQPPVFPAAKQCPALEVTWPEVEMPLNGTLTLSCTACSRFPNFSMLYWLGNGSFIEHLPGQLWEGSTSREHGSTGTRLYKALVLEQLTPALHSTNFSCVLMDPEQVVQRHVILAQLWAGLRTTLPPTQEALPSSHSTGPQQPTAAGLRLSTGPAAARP
In words: BLI (Octet), mAb on AHC biosensor.

Test [5] concerns the target T2, human IL-18BP (interleukin-18 binding …). Nature of the test: BLI (Octet), mAb on AHC biosensor. This is another data set of the same source.
The target in test [6] is T3, cynomolgus IL-18BP. Nature of the test: BLI (Octet), mAb on AHC biosensor.
For test [7], the target named is T1, mouse IL-18BP. In words: BLI (Octet), mAb on AHC biosensor. The source holds these as a separate data set.
In test [8] the target is T2, human IL-18BP (interleukin-18 binding …). In words: BLI (Octet), mAb on AHC biosensor. The source holds these as a separate data set.
Test [9] has as its target T3, cynomolgus IL-18BP. Nature of the test: BLI (Octet), mAb on AHC biosensor.
Test [10] addresses T2, human IL-18BP (interleukin-18 binding …). In words: BLI (Octet), mAb on AHC biosensor. This is another data set of the same source.
In test [11] the target is T3, cynomolgus IL-18BP. Nature of the test: BLI (Octet), mAb on AHC biosensor.
Test [12] addresses T3, cynomolgus IL-18BP. In words: ratio of BLI KDs for cyno and human IL-18BP.
For test [13], the target named is T3, cynomolgus IL-18BP. Nature of the test: ratio of BLI KDs, cyno against human IL-18BP.
Test [14] deals with T2, human IL-18BP (interleukin-18 binding …). Nature of the test: cell-based or functional assay.
Test [15] has the same target. In words: cell-based or functional assay. This is another data set of the same source.
Test [16] shares this target. Nature of the test: cell-based or functional assay. This is another data set of the same source.
In test [17] the target is T1, mouse IL-18BP. In words: BLI (Octet), mAb on AHC biosensor. This is another data set of the same source.
Test [18] addresses T2, human IL-18BP (interleukin-18 binding …). Nature of the test: BLI single-concentration screen, apparent KD.
For test [19], the target named is T3, cynomolgus IL-18BP. Nature of the test: BLI single-concentration screen, apparent KD.
Test [20] deals with T2, human IL-18BP (interleukin-18 binding …). Nature of the test: BLI (Octet), mAb on AHC biosensor. The source holds these as a separate data set.
Test [21] concerns the target T3, cynomolgus IL-18BP. In words: BLI (Octet), mAb on AHC biosensor.
In test [22] the target is T1, mouse IL-18BP. In words: BLI (Octet), mAb on AHC biosensor. The source holds these as a separate data set.

hypo-IL-18 (IL-18 tethered to IL-18BP by a flexible linker with TEV site, 6xHis) (human), sequence (chain, as listed by the source limits assumed): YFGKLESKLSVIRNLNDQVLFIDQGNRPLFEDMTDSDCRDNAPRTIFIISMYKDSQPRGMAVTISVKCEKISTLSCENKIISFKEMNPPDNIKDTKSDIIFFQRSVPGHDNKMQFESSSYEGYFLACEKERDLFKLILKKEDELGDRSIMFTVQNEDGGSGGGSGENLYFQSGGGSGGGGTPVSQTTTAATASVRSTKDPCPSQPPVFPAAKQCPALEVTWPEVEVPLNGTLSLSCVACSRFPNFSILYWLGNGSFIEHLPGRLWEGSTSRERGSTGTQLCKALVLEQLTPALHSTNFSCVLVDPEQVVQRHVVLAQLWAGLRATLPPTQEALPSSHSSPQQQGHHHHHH

B1: SA07a (antibody, human IgG1, V domains shown)
VH: EVQLQQSGPELVKPGASVKISCKASGYTFTDYYMNWVKQSHGKSLEWIGDINPNNGGTSYNQKFKGKATLTVDKSSNTAYMELRSLTSEDSAVYYCAREGVYSNYGGYFDYWGQGTTLTVSS
VL: QIVLTQSPALMSASPGEKVTMTCSASSSVSYMYWYQQKPRSSPKPWIYLTSNLASGVPARFSGSGSGTSYSLTISSMEAEDAATYYCQQWSSNPPTFGSGTKLEIK
notes: murine variable regions on human IgG1 kappa constant regions
With B1, the binding result in the test with mouse IL-18BP [1] is given as “no binding”.

B2: SA44a (antibody, human IgG1, V domains shown)
VH: DVQLQESGPDLVKPSQSLSLTCTVTGYSITSDYNCHWIRQFPGNKLEWMGYIHYSGSTNYNPSLKSRISITRDTSKNQFFLQLNSVTAEDTATYYCARNYGSIYVNYFDYWGQGTTLTVSS
VL: QIVLTQSPAIMSASPGEKVTISCSASSSVSYMYWYQQEPGSSPKPWIYRTSNLASGVPPRFSGSGSGTSYSLTISSMEAEDAATYFCQQYHSYPTFGGGTKLEIK
notes: as for B1
B2: the binding result (in test [2]; with mouse IL-18BP [7]) was “no binding” throughout. In addition, the Kd was 510 pM in [3]; 670 pM with cynomolgus IL-18BP [4]; 688 pM in [5]; 525 pM in the test with cynomolgus IL-18BP [6]; 688 pM in test [8]; 525 pM with cynomolgus IL-18BP [9]. Also, the Kd in [10] was found to be 685 pM; with cynomolgus IL-18BP [11], 524 pM. The “Human/Cyno Fold Difference” value in the test with cynomolgus IL-18BP [12] turned out to be 1 fold. Besides, the Cyno/human with cynomolgus IL-18BP [13] is 0.76 ratio.

B3: SA34a (antibody, human IgG1, V domains shown)
VH: QVQLQQSGAELARPGASVKLSCKASGYTFTDYYINWVKQRTGQGLEWIGEIYPGSGNTYYNEKFKGKATLTADKSSSTAYMQLSSLTSEDSAVYFCARGYYGRFAYWGQGTLVTVSA
VL: DIVMTQAAFSNPVTLGTSASISCRSSKSLLHSNGITYLYWYLQKPGQSPQLLIYQMSNLASGVPDRFSSSGSGTDFTLRISRVEAEDVGVYYCDQNLELPFTFGSGTKLEIK
notes: as for B1
On to B3, for which the binding result in test [2] is on record as “no binding”. The “EC50 (nM), HEK293 IL-18 Reporter Assay (SEAP)” value (“EC50 (nM) … (SEAP)” for short) in [14] came to 5.02 nM. Further, in test [15], the “EC50 (nM), KG-1 Assay (IFNγ)” value turned out to be 51 nM. Moreover, the Kd came to 18000 pM in test [3] and 12000 pM in the test with cynomolgus IL-18BP [4].

B4: SA31a (antibody, human IgG1, V domains shown)
VH: QVQLQQPGSELVRPGASVKLSCKASGYTFTSYWMHWVKQRPGQGLEWIGNIYPGSGNTIYDEKFKSKATLTVDTSSSTAYMQLSSLTSEDSAVYYCTRWDNWEGYYFDYWGQGTTLTVSS
VL: B3 VL with D94A, F101W, S105G
notes: as for B1
As for B4, the binding result in [2] is given as “no binding”. Further, the “EC50 (nM) … (SEAP)” value in [14] came out at 2.62 nM. Besides, in test [15], the “EC50 (nM), KG-1 Assay (IFNγ)” value was found to be 185 nM. Also, the Kd in [3] is 3000 pM; with cynomolgus IL-18BP [4] it was 5000 pM.

B5: SA33a (antibody, human IgG1, V domains shown)
VH: QVQLQQSGAELVRPGVSVKISCKGSGYTFTDYAMHWVKQSHAKSLEWIGVISTYYGDASYNQKFKGKATMTVDKSSSTAYMELARLTSEDSAIYYCARERDYYGSRLFDYWGQGTTLTVSS
VL: EIVLTQSPTTMAASPGEKITITCSANSSISSNYLHWYQQKPGFSPKLLIYGTSNLASGVPARFSGSGSGTSYSLTIGTMEAEDVATYYCQQGSSIPYTFGGGTKLEIK
notes: as for B1
B5: the binding result in test [2] was “no binding”. Moreover, the “EC50 (nM) … (SEAP)” value in test [14] was 0.36 nM. Also, the “EC50 (nM), KG-1 Assay (IFNγ)” value in test [15] was found to be 129 nM. Further, the Kd was determined as 3000 pM in test [3] and 16000 pM in the test with cynomolgus IL-18BP [4].

B6: SA301a (antibody, human IgG1, V domains shown)
VH: QVQLQESGPGLVKPSQTLSLTCTVSGYSITSDYNSHWIRQPPGKGLEWIGYIHYSGSTNYNPSLKSRVTISRDTSKNQFSLKLSSVTAADTAVYYCARNYGSIYVNYFDYWGQGTLVTVSS
VL: EIVLTQSPATLSLSPGERATLSCSASSSVSYMYWYQQKPGQAPRPLIYRTSNLASGIPARFSGSGSGTDFTLTISSLEPEDFAVYYCQQYHSYPTFGGGTKVEIK
notes: humanized; human IgG1 (suffix a), kappa; also called humanized SA44a
For the molecule B6, in [15], the “EC50 (nM), KG-1 Assay (IFNγ)” value worked out at 1.3 nM. For the same molecule, the “EC50 in PBMC Assay 1 (endogenous IL-18BP), IFNγ” value in test [16] came out at 2000 pM. The Kd in test [8] was 162 pM; in the test with cynomolgus IL-18BP [9], 78 pM; in test [10] it was 217 pM; with cynomolgus IL-18BP [11], 102 pM; in test [18], 200 pM and 300 pM; in the test with cynomolgus IL-18BP [19], 100 pM and 200 pM. Besides, in the test with mouse IL-18BP [17], the binding result is reported as “no binding”. For the same molecule, in the test with cynomolgus IL-18BP [13], the Cyno/human amounted to 0.47 ratio.

B7: SA04a (antibody, human IgG1, V domains shown)
VH: QIQFVQSGPEVKTPGETVKISCKASVYTFTEYPMHWLKQAPGEDFEWMGWIHTYSGEPTYADDFKGRFAFSLETSASTAYLQINNLKTEDTATYFCARGRYYGALDYWGQGTALT
VL: DIQMTQTPSSLSASLGDRVTISCRASQDISNYLNWYQQKPDGTVKLLIYYTSRLHSGVPSRFSGSGSGTDYSLTISNLEQEDVATYFCQHGNTLPRTFGGGTKLEIK
notes: as for B1
B7: the binding result in test [2] is reported as “no binding”. Besides, the “EC50 (nM) … (SEAP)” value in [14] came to 0.1 nM. Moreover, the “EC50 (nM), KG-1 Assay (IFNγ)” value in test [15] was 2.6 nM. Besides, the Kd is 250 pM in test [3]; 670 pM with cynomolgus IL-18BP [4]; 260 pM in [5]; 1500 pM with cynomolgus IL-18BP [6]; 260 pM in test [20]; 1500 pM with cynomolgus IL-18BP [21]. Besides, the “Human/Cyno Fold Difference” value with cynomolgus IL-18BP [12] was 5.8 fold.

B8: SA35a (antibody, human IgG1, V domains shown)
VH: QVQLQQSGAELVRPGVSVKISCKGSGYTFTDYPMHWVKQSHAKSLEWIGVISTYYGDASYNQKFKGKATMTVDKSSSTAYMELARLTSEDSAIYYCARWRGSFDYWGQGTTLTVSS
VL: ENVLTQSPAIMSASPGEKVTMTCRASSSVSSSYLHWYQQKSGASPKLWIYSTSNLASGVPARFSGSGSGTSYSLTISSVEAEDAATYYCQQYSGYHTFGGGTKLEIK
notes: as for B1
For B8, the binding result in test [2] was “no binding”. Further, in test [14], the “EC50 (nM) … (SEAP)” value was 21 nM. Moreover, the “EC50 (nM), KG-1 Assay (IFNγ)” value in test [15] stood at 103 nM. Also, the Kd turned out to be 11000 pM in test [3] and 13000 pM with cynomolgus IL-18BP [4].

B9: SA50a (antibody, human IgG1, V domains shown)
VH: QVQLVQSGSELKKPGASVKVSCKASVYTFTEYPMHWLRQAPGQGFEWMGWIHTYSGEPTYADDFKGRFVFSLDTSVSTAYLQISSLKAEDTAVYFCARGRYYGALDYWGQGTALTVSS
VL: DIQMTQSPSSLSASVGDRVTITCRASQDISNYLNWYQQKPGKAVKLLIYYTSRLHSGVPSRFSGSGSGTDYTFTISSLQPEDIATYFCQHGNTLPRTFGGGTKLEIK
notes: humanized; human IgG1 (suffix a), kappa; also called humanized SA04a
Take B9: the figures for the Kd (in [20]; in the test with cynomolgus IL-18BP [21]) were 410 pM and 4270 pM, respectively. The binding result with mouse IL-18BP [22] was “no binding”.
